This is an account of results in patent US20110118447A1.

Where a chain is given by its changes, count along the chain named. Numbers in names are those of the source.

To fix the notation:
B1: C5A (XPA23) VL A51E (antibody, V domains shown)
VH: EVQLLESGGGLVQPGGSLRLSCAASGFTFSKYFMFWVRQAPGKGLEWVSVISPSGGMTRYADSVKGRFTISRDNSKNTLYLQMNSLRAEDTAVYYCARVGYGGNSDYWGQGTLVTVSS
VL: DIQMTQSPSSVSASVGDRLTIICRASQDINRWLAWYQQTPGNAPKLLIHSETSLQSGVPSRFSGSGSGTDFTLTINSLQPEDFATYYCQQADSFPLTFGGGTKVEIK
B2: C5A (XPA23) VL A51Q (antibody, V domains shown)
VH: B1 VH
VL: B1 VL with E51Q
B3: C5A (XPA23) VL A51Y (antibody, V domains shown)
VH: B1 VH
VL: B1 VL with E51Y
B4: C5A (XPA23) VL A51H (antibody, V domains shown)
VH: B1 VH
VL: B1 VL with E51H
B5: C5A (XPA23) VL T52D (antibody, V domains shown)
VH: B1 VH
VL: B1 VL with E51A, T52D
B6: C5A (XPA23) VL A51N (antibody, V domains shown)
VH: B1 VH
VL: B1 VL with E51N
B7: C5A (XPA23) VL S93H (antibody, V domains shown)
VH: B1 VH
VL: B1 VL with E51A, S93H
B8: C5A (XPA23) VL D92K (antibody, V domains shown)
VH: B1 VH
VL: B1 VL with E51A, D92K
B9: C5A (XPA23) VL A91T (antibody, V domains shown)
VH: B1 VH
VL: B1 VL with E51A, A91T
B10: C5A (XPA23) VL T52R (antibody, V domains shown)
VH: B1 VH
VL: B1 VL with E51A, T52R
B11: C5A (XPA23) VL S53Y (antibody, V domains shown)
VH: B1 VH
VL: B1 VL with E51A, S53Y
B12: C5A (XPA23) VL D92H (antibody, V domains shown)
VH: B1 VH
VL: B1 VL with E51A, D92H
B13: C5A (XPA23) VL A51S (antibody, V domains shown)
VH: B1 VH
VL: B1 VL with E51S
B14: C5A (XPA23) VL A91N (antibody, V domains shown)
VH: B1 VH
VL: B1 VL with E51A, A91N
B15: C5A (XPA23) VL T52H (antibody, V domains shown)
VH: B1 VH
VL: B1 VL with E51A, T52H
B16: C5A (XPA23) VL A91E (antibody, V domains shown)
VH: B1 VH
VL: B1 VL with E51A, A91E
B17: C5A (XPA23) VL D92E (antibody, V domains shown)
VH: B1 VH
VL: B1 VL with E51A, D92E
B18: C5A (XPA23) VL S53E (antibody, V domains shown)
VH: B1 VH
VL: B1 VL with E51A, S53E
B19: C5A (XPA23) VL S93R (antibody, V domains shown)
VH: B1 VH
VL: B1 VL with E51A, S93R
B20: C5A (XPA23) VL T52Y (antibody, V domains shown)
VH: B1 VH
VL: B1 VL with E51A, T52Y
B21: C5A (XPA23) VL T52K (antibody, V domains shown)
VH: B1 VH
VL: B1 VL with E51A, T52K
B22: C5A (XPA23) VL D92T (antibody, V domains shown)
VH: B1 VH
VL: B1 VL with E51A, D92T
B23: C5A (XPA23) VL S53Q (antibody, V domains shown)
VH: B1 VH
VL: B1 VL with E51A, S53Q
B24: C5A (XPA23) VL A91H (antibody, V domains shown)
VH: B1 VH
VL: B1 VL with E51A, A91H
B25: C5A (XPA23) VL D92N (antibody, V domains shown)
VH: B1 VH
VL: B1 VL with E51A, D92N
B26: C5A (XPA23) VL D92Q (antibody, V domains shown)
VH: B1 VH
VL: B1 VL with E51A, D92Q
B27: C5A (XPA23) VL S93E (antibody, V domains shown)
VH: B1 VH
VL: B1 VL with E51A, S93E
B28: C5A (XPA23) VL S53T (antibody, V domains shown)
VH: B1 VH
VL: B1 VL with E51A, S53T
B29: C5A (XPA23) VL S53R (antibody, V domains shown)
VH: B1 VH
VL: B1 VL with E51A, S53R
B30: C5A (XPA23) VL S93K (antibody, V domains shown)
VH: B1 VH
VL: B1 VL with E51A, S93K
B31: C5A (XPA23) VL T52Q (antibody, V domains shown)
VH: B1 VH
VL: B1 VL with E51A, T52Q
B32: C5A (XPA23) VL A91S (antibody, V domains shown)
VH: B1 VH
VL: B1 VL with E51A, A91S
B33: C5A (XPA23) VL D92S (antibody, V domains shown)
VH: B1 VH
VL: B1 VL with E51A, D92S
B34: C5A (XPA23) VL S53N (antibody, V domains shown)
VH: B1 VH
VL: B1 VL with E51A, S53N
B35: C5A (XPA23) VL T52E (antibody, V domains shown)
VH: B1 VH
VL: B1 VL with E51A, T52E
B36: C5A (XPA23) VL A91D (antibody, V domains shown)
VH: B1 VH
VL: B1 VL with E51A, A91D
B37: C5A (XPA23) VL A51R (antibody, V domains shown)
VH: B1 VH
VL: B1 VL with E51R
B38: C5A (XPA23) VL T52N (antibody, V domains shown)
VH: B1 VH
VL: B1 VL with E51A, T52N
B39: C5A (XPA23) VL A51T (antibody, V domains shown)
VH: B1 VH
VL: B1 VL with E51T
B40: C5A (XPA23) VL S53K (antibody, V domains shown)
VH: B1 VH
VL: B1 VL with E51A, S53K
B41: C5A (XPA23) VL S93D (antibody, V domains shown)
VH: B1 VH
VL: B1 VL with E51A, S93D
B42: C5A (XPA23) VL S93T (antibody, V domains shown)
VH: B1 VH
VL: B1 VL with E51A, S93T
B43: C5A (XPA23) VL T52S (antibody, V domains shown)
VH: B1 VH
VL: B1 VL with E51A, T52S

The target in this assay is binding partner of C5A (XPA23). The assay can be described thus: Biacore K-off. In general terms: In SPR one partner is held on a chip, and binding of the other changes the refractive index at the surface.
As to B1, the fold difference in affinity vs original came to 0.29 fold.
For the molecule B2, the fold difference in affinity vs original came out at 0.24 fold.
With B3, the fold difference in affinity vs original was 0.45 fold.
With B4, the fold difference in affinity vs original came to 0.61 fold.
Consider B5, for which the fold difference in affinity vs original is 0.72 fold.
Then B6, with 0.3 fold; and B7, with 1.08 fold.
Then B8, with 0.23 fold.
As for B9, the figure is 0.67 fold; as for B10, 3.37 fold; as for B11, 1.23 fold.
Turning to B12, the fold difference in affinity vs original was 0.63 fold.
As for B13, the figure is 0.95 fold; as for B14, 0.1 fold.
Then B15, with 0.91 fold.
Then B16, with 0.1 fold.
B17: the fold difference in affinity vs original was 0.99 fold.
Then B18, with 1.13 fold; and B19, with 0.91 fold.
As for B20, the figure is 1.01 fold.
As for B21, the figure is 3.23 fold; as for B22, 0.34 fold; as for B23, 1.09 fold.
Turning to B24, the fold difference in affinity vs original was 1.12 fold.
Consider B25, for which the fold difference in affinity vs original is 0.67 fold.
As for B26, the figure is 0.56 fold.
Then B27, with 3.71 fold.
Then B28, with 0.95 fold; and B29, with 3.29 fold; and B30, with 0.86 fold.
Regarding B31, the fold difference in affinity vs original came out at 0.83 fold.
As for B32, the figure is 0.9 fold; as for B33, 6.59 fold.
As for B34, the figure is 1.23 fold; as for B35, 0.61 fold.
B36: the fold difference in affinity vs original was 1.08 fold.
As for B37, the figure is 0.18 fold; as for B38, 0.83 fold; as for B39, 0.76 fold.
Then B40, with 4.07 fold; and B41, with 4.59 fold; and B42, with 1.47 fold.
As for B43, the figure is 0.78 fold.
